Key:
[1] = molecular target: Nanoluc_DDB1 (N-terminal Nanoluc luciferase, G4S linker, DDB1 (FL)) (UniProt Q16531); assay: NanoBRET in HEK293T cells, 10 µM compound Example 3-39; class B = 3-4 fold increase
[2] = molecular target: Nanoluc_DDB1 (N-terminal Nanoluc luciferase, G4S linker, DDB1 (FL)) (UniProt Q16531); assay: NanoBRET in HEK293T cells, 10 µM compound Example 3-20; class C = 2-3 fold increase
[3] = molecular target: Nanoluc_DDB1 (N-terminal Nanoluc luciferase, G4S linker, DDB1 (FL)) (UniProt Q16531); assay: NanoBRET in HEK293T cells, 10 µM compound Example 3-58; class C = 2-3 fold increase
[4] = molecular target: Nanoluc_DDB1 (N-terminal Nanoluc luciferase, G4S linker, DDB1 (FL)) (UniProt Q16531); assay: NanoBRET in HEK293T cells, 10-point titration of compound Example 3-3; class E = >10 µM
[5] = molecular target: Nanoluc_DDB1 (N-terminal Nanoluc luciferase, G4S linker, DDB1 (FL)) (UniProt Q16531); assay: NanoBRET in HEK293T cells, 10-point titration of compound Example 3-4; class A = EC50<=0.25 µM
[6] = molecular target: Nanoluc_DDB1 (N-terminal Nanoluc luciferase, G4S linker, DDB1 (FL)) (UniProt Q16531); assay: NanoBRET in HEK293T cells, 10 µM compound Example 3-66; class A = greater than 4-fold increase
[7] = molecular target: Nanoluc_DDB1 (N-terminal Nanoluc luciferase, G4S linker, DDB1 (FL)) (UniProt Q16531); assay: NanoBRET in HEK293T cells, 10 µM compound Example 3-29; class B = 3-4 fold increase
[8] = molecular target: Nanoluc_DDB1 (N-terminal Nanoluc luciferase, G4S linker, DDB1 (FL)) (UniProt Q16531); assay: NanoBRET in HEK293T cells, 10 µM compound Example 3-13; class B = 3-4 fold increase
[9] = molecular target: Nanoluc_DDB1 (N-terminal Nanoluc luciferase, G4S linker, DDB1 (FL)) (UniProt Q16531); assay: NanoBRET in HEK293T cells, 10 µM compound Example 3-22; class B = 3-4 fold increase
[10] = molecular target: Nanoluc_DDB1 (N-terminal Nanoluc luciferase, G4S linker, DDB1 (FL)) (UniProt Q16531); assay: NanoBRET in HEK293T cells, 10-point titration of compound Example 3-53; class E = >10 µM
[11] = molecular target: Nanoluc_DDB1 (N-terminal Nanoluc luciferase, G4S linker, DDB1 (FL)) (UniProt Q16531); assay: NanoBRET in HEK293T cells, 10 µM compound Example 3-57; class B = 3-4 fold increase
[12] = molecular target: Nanoluc_DDB1 (N-terminal Nanoluc luciferase, G4S linker, DDB1 (FL)) (UniProt Q16531); assay: NanoBRET in HEK293T cells, 10 µM compound Example 3-50; class A = greater than 4-fold increase
[13] = molecular target: Nanoluc_DDB1 (N-terminal Nanoluc luciferase, G4S linker, DDB1 (FL)) (UniProt Q16531); assay: NanoBRET in HEK293T cells, 10 µM compound Example 3-14; class A = greater than 4-fold increase
[14] = molecular target: Nanoluc_DDB1 (N-terminal Nanoluc luciferase, G4S linker, DDB1 (FL)) (UniProt Q16531); assay: NanoBRET in HEK293T cells, 10 µM compound Example 3-8; class A = greater than 4-fold increase
[15] = molecular target: Nanoluc_DDB1 (N-terminal Nanoluc luciferase, G4S linker, DDB1 (FL)) (UniProt Q16531); assay: NanoBRET in HEK293T cells, 10 µM compound Example 3-41; class C = 2-3 fold increase
[16] = molecular target: Nanoluc_DDB1 (N-terminal Nanoluc luciferase, G4S linker, DDB1 (FL)) (UniProt Q16531); assay: NanoBRET in HEK293T cells, 10 µM compound Example 3-26; class C = 2-3 fold increase
[17] = molecular target: Nanoluc_DDB1 (N-terminal Nanoluc luciferase, G4S linker, DDB1 (FL)) (UniProt Q16531); assay: NanoBRET in HEK293T cells, 10-point titration of compound Example 3-9; class A = EC50<=0.25 µM
[18] = molecular target: Nanoluc_DDB1 (N-terminal Nanoluc luciferase, G4S linker, DDB1 (FL)) (UniProt Q16531); assay: NanoBRET in HEK293T cells, 10 µM compound Example 3-37; class C = 2-3 fold increase
[19] = molecular target: Nanoluc_DDB1 (N-terminal Nanoluc luciferase, G4S linker, DDB1 (FL)) (UniProt Q16531); assay: NanoBRET in HEK293T cells, 10-point titration of compound Example 3-59; class E = >10 µM
[20] = molecular target: Nanoluc_DDB1 (N-terminal Nanoluc luciferase, G4S linker, DDB1 (FL)) (UniProt Q16531); assay: NanoBRET in HEK293T cells, 10 µM compound Example 3-62; class A = greater than 4-fold increase
[21] = molecular target: Nanoluc_DDB1 (N-terminal Nanoluc luciferase, G4S linker, DDB1 (FL)) (UniProt Q16531); assay: NanoBRET in HEK293T cells, 10 µM compound Example 3-30; class C = 2-3 fold increase
[22] = molecular target: Nanoluc_DDB1 (N-terminal Nanoluc luciferase, G4S linker, DDB1 (FL)) (UniProt Q16531); assay: NanoBRET in HEK293T cells, 10 µM compound Example 3-54; class C = 2-3 fold increase
[23] = molecular target: Nanoluc_DDB1 (N-terminal Nanoluc luciferase, G4S linker, DDB1 (FL)) (UniProt Q16531); assay: NanoBRET in HEK293T cells, 10 µM compound Example 3-35; class A = greater than 4-fold increase
[24] = molecular target: Nanoluc_DDB1 (N-terminal Nanoluc luciferase, G4S linker, DDB1 (FL)) (UniProt Q16531); assay: NanoBRET in HEK293T cells, 10 µM compound Example 3-38; class B = 3-4 fold increase
[25] = molecular target: Nanoluc_DDB1 (N-terminal Nanoluc luciferase, G4S linker, DDB1 (FL)) (UniProt Q16531); assay: NanoBRET in HEK293T cells, 10 µM compound Example 3-19; class A = greater than 4-fold increase
[26] = molecular target: Nanoluc_DDB1 (N-terminal Nanoluc luciferase, G4S linker, DDB1 (FL)) (UniProt Q16531); assay: NanoBRET in HEK293T cells, 10 µM compound Example 3-44; class A = greater than 4-fold increase

Sequence of Nanoluc_DDB1 (N-terminal Nanoluc luciferase, G4S linker, DDB1 (FL)) (Q16531 other isoform, or with tags, fused parts or gaps): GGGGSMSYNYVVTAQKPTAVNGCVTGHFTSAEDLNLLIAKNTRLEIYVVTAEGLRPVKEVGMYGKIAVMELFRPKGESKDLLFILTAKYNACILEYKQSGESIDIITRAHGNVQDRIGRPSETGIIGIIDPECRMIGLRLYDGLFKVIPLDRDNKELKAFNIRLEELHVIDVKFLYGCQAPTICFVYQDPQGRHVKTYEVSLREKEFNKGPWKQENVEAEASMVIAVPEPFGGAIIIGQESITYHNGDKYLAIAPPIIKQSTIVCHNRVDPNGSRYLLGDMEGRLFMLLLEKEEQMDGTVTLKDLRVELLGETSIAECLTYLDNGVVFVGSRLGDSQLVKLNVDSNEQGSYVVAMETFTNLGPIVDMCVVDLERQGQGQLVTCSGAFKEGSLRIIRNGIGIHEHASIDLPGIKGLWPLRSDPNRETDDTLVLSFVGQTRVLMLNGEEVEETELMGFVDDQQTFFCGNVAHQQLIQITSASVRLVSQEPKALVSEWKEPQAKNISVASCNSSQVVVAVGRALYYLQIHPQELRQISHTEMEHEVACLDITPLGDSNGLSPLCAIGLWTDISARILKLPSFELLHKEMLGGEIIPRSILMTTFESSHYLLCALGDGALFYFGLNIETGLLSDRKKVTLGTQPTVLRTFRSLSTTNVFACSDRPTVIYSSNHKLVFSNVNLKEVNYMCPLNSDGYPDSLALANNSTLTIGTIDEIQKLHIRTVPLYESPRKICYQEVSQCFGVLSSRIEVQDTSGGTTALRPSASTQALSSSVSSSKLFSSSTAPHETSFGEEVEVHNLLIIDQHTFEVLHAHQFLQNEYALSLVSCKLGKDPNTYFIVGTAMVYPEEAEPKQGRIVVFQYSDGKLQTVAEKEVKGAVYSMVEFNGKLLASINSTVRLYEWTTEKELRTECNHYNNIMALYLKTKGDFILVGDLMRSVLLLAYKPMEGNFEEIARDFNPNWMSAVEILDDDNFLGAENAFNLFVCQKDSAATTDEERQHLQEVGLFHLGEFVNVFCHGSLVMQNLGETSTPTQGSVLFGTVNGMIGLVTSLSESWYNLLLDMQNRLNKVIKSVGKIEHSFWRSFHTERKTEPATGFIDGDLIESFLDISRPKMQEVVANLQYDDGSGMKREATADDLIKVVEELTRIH

“HaloTag_CDK12 (N-terminal HaloTag, G4S linker, CDK12 (713-1052)) (from UniProt Q9NYV4 713-1052) (enzyme)” was tested, and the NanoBRET fold increase [1] was 3 to 4 fold, the NanoBRET fold increase [2] was 2 to 3 fold and the NanoBRET fold increase [3] was 2 to 3 fold. It also gave an EC50 [4] greater than 10 µM, an EC50 [5] of less than 250 nM and a NanoBRET fold increase [6] greater than 4 fold. The NanoBRET fold increase [7] was 3 to 4 fold, the NanoBRET fold increase [8] was 3 to 4 fold and the NanoBRET fold increase [9] was 3 to 4 fold. The EC50 [10] was greater than 10 µM, the NanoBRET fold increase [11] was 3 to 4 fold and the NanoBRET fold increase [12] was greater than 4 fold. It also gave a NanoBRET fold increase [13] greater than 4 fold, a NanoBRET fold increase [14] greater than 4 fold and a NanoBRET fold increase [15] of 2 to 3 fold. The NanoBRET fold increase [16] was 2 to 3 fold, the EC50 [17] was less than 250 nM and the NanoBRET fold increase [18] was 2 to 3 fold. For the same substance, the EC50 [19] was greater than 10 µM, the NanoBRET fold increase [20] was greater than 4 fold and the NanoBRET fold increase [21] was 2 to 3 fold. The NanoBRET fold increase [22] was 2 to 3 fold, the NanoBRET fold increase [23] was greater than 4 fold and the NanoBRET fold increase [24] was 3 to 4 fold. The NanoBRET fold increase [25] was greater than 4 fold and the NanoBRET fold increase [26] was greater than 4 fold.
